Legend:
[1] = biological target: T1, SARS-CoV-2 바이러스 표면 단백질 (RBD) (SARS-CoV-2, UniProt P0DTC2 319-541); assay: BLI (Octet), Full IgG culture supernatant
[2] = biological target: T1, SARS-CoV-2 바이러스 표면 단백질 (RBD); assay: BLI (Octet), Full IgG

B1: No. 32 항체 (Full IgG) (antibody, V domains shown)
VH: EVQLVQSGGGLIQPGGSLRLSCAASEFIVSSNYMTWVRQAPGKGLEWVSIIYPGGSTYYADSVKGRFTISRDNSKNTLYLRMNSLRAEDTAVYYCARDLPLTGTTLDYWGQGTLVTVSS
VL: not shown
With B1 the Kd [1] was 0.147 nM, the Kd [2] was 0.305 nM and the koff [2] was 0.000193 s⁻¹. It also gave a kon [2] of 633000 M⁻¹ s⁻¹.

Reference: patent publication KR20220013302A (dated 2022)
